Entries after “also recorded” stand apart in the source; their conditions may differ.
How the values were obtained:
TNFα = biological target: T1, TNFα (Homo sapiens, UniProt P01375); assay: Dot blot binding of mFLINT to TNF ligands
T1 construct: purchased

BALB/c mice = assay: LPS/galactosamine liver damage and sepsis model, survival; format: in vivo, mouse; conditions: for survival of mice: FIG. 5, mFLINT 200 μg i.v.
Procedure: Specifically, the activity of the polypeptides of the present invention against acute inflammation and apoptosis was determined using the following procedure. Briefly, BALB/c mice (Harlan) per each experimental group were given intravenous injections (the lateral tail vein) of 6 mg of D(+)-Galactosamine (Sigma, 39F-0539) in 100 μl of PBS (GIBCO-BRL) and 3 μg of Lipopolysaccharide B E. coli 026:B6 (LPS) (Difco, 3920-25-2) in 100 μl of PBS. The LPS was administered, via i.v. injection, 5 minutes after the galactosamine, which was administered i.v. […] C. F. et al J. Immunol. 1989. 142: 3884), and Anti-mouse Fas Ligand (500 μg, PharMingen, M024301) at 0, 2, 4, 6 hour-point respectively. The survival rates of the mice were determined 24 and 48 hours after LPS injection.

TRANCE = biological target: T2, TRANCE (Homo sapiens, UniProt O14788); assay: Dot blot binding of mFLINT to TNF ligands
T2 construct: purchased
T2 sequence (O14788 140-317 limits assumed): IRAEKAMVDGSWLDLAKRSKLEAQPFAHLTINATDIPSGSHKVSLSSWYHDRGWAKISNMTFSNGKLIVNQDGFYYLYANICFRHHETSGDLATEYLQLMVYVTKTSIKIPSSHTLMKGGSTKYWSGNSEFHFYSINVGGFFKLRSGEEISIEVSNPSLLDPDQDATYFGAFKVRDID

[1] = system: intact hippocampal neurons along the dorsal CA1 regions; assay: Gerbil cerebral ischemia (carotid occlusion), hippocampal CA1 neuron count; format: in vivo; conditions: 5 min carotid occlusion; 5 ul bolus 0.63 mg/ml then 1 ul/h for 3 days intracerebral; day 5; p-0.0039 t-Test, p=0.0037 Wilcoxon
Procedure: Adult male gerbils (70 to 80 g body weight, Charles River Laboratories, Wilmington, Mass.) were anesthetized by i.p. injections of sodium pentobarbital (Nembutal) 40 mg/kg, and additional i.p. injections of 10 mg/kg when necessary to maintain a surgical plane of anesthesia. Animals were placed on a thermostatically controlled heating blanket to maintain body temperature at 37° C. The ventral surface of the neck was exposed, the fur shaved, and the skin cleaned with 2% iodine solution.
After the pre-surgical preparation, a midline incision was made, and the skin opened. The sternohyoid muscles were divided to exposed and isolate the common carotid arteries (CCA) for clamping. Sterilized aneurysm clips (blade with 0.15 mm, closing force ^˜10 gm) was secured by means of a sterilized clip applier on both left and right CCA for 5 minutes. The clamps were then removed and the patency of the arteries checked visually. The wound in the neck was closed by surgical suture. […]
On the fifth day of survival; the gerbils were sacrificed in a CO2 chamber. […] After staining with Cresyl violet, the sections were viewed under a microscope at 40× magnification for cell counter quantification of the intact hippocampal neurons along the dorsal CA1 regions (0.5 mm in length) of both hemispheres. Data were analyzed by Student t-Test and the Wilcoxon ranking test.

T1 sequence (P01375 77-233 limits assumed, species assumed): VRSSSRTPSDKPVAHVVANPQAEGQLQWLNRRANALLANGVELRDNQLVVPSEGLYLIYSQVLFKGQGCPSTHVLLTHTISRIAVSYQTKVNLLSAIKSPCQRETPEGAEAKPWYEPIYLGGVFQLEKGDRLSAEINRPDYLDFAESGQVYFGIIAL

B1: mFLINT: mature FLINT without leader peptide (FIG. 3), soluble TNFR superfamily member, made according to Examples 8 and 9 (protein)
chain: VAETPTYPWRDAETGERLVCAQCPPGTFVQRPCRRDSPTTCGPCPPRHYTQFWNYLERCRYCNVLCGEREEEARACHATHNRACRCRTGFFAHAGFCLEHASCPPGAGVIAPGTPSQNTQCQPCPPGTFSASSSSSEQCQPHRNCTALGLALNVPGSSSHDTLCTSCTGFPLSTRVPGAEECERAVIDFVAFQDISIKRLQRLLQALEAPEGWGPTPRAGRAALQLKLRRRLTELLGAQDGALLVRLLQALRVARMPGLERSVRERFLPVH
modifications: glycosylated
TNFα
  binding in dot blot: No appreciable binding
BALB/c mice; administered 2 hours before LPS/GalN
  survival of mice: 100%
BALB/c mice; administered 4 hours after LPS/GalN, survival at 48 hours
  survival of mice: 80%
BALB/c mice; FIG. 6, 50 ug mFLINT
  animals survived to 48 hours: about 70%
BALB/c mice; FIG. 6, 400 ug i.p., 2 hours before LPS/GalN challenge
  animals alive 48 hours after LPS/GalN: 100%
BALB/c mice; FIG. 7, 1 ug iv, 4-hour post-LPS/GalN
  survival: about 2%
BALB/c mice; FIG. 7, 5 ug iv, 4-hour post-LPS/GalN
  survival: 20%
BALB/c mice; FIG. 7, 10 ug iv, 4-hour post-LPS/GalN
  survival: 40%
BALB/c mice; FIG. 7, 50 ug iv, 4-hour post-LPS/GalN
  survival: 80%
BALB/c mice; FIG. 7, 100 μg mFLINT IP, 4 hours after LPS/GalN
  survival: 80%
BALB/c mice; FIG. 7, 100 μg mFLINT iv, 4 hours after LPS/GalN
  survival: 100%
BALB/c mice; FIG. 7, 100 μg mFLINT, 12 or 2 hours before LPS/GalN
  effect on survival, ip compared with iv: the same
BALB/c mice; IP 200 μg mFLINT, 2 hours post-challenge with 3 μg LPS
  animals survived: 100%
BALB/c mice; IP 200 μg mFLINT, 6 hours post-challenge with 3 μg LPS
  animals survived: 60%
BALB/c mice; IP, 4 hours post-challenge with 3 μg LPS (mFLINT 200 μg)
  animals survived: 73%
TRANCE
  binding in dot blot: No appreciable binding
[1]
  neuronal survival (intact hippocampal CA1 neurons): significant effect on neuronal survival compared to vehicle; also recorded: indistinguishable from normal controls
